# Test results from the supplement of paper PMC7877785.
# ± gives the uncertainty stated by the source.
# Test: self-splicing fitness, log relative to wild type (ln ratio); higher = more splicing; Tetrahymena group I intron in knt gene, E. coli kanamycin selection, DiMSum; sequences stand for … in CUCUCU…GGAGGGAAAAGUUAUCAGGCAUGCACCUGGUAGCUAGUCUUUAAACCAAUAGAUUGCAUCGGUUUAAAAGGCAAGACCGUCAAAUUGCGGGAAAGGGGUCAACAGCCGUUCAGUACCAAGUCUCAGGGGAAACUUUGAGAUGGCCUUGCAAAGGGUAUGGUAAUAAGCUGACGGACAUGGUCCUAACCACGCAGCCAAGUCCUAAGUCAACAGAUCUUCUGUUGAUAUGGAUGCAGUUCACAGACUAAAUGUCGGUCGGGGAAGAUGUAUUCUUCUCAUAAGAUAUAGUCGGACCUCUCCUUAAUGGGAGCUAGCGGAUGAAGUGAUGCAACACUGGAGCCGCUGGGAACUAAUUUGUAUGCGAAAGUAUAUUGAUUAGUUUUGGAGUACUCGUGGUCG
# Outline: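 A randomised library covering all eight P1ex-region intron nucleotides was built with the intron in the knt kanamycin-resistance gene on pET-22b(+) and held in E. coli BL21(DE3). Cells were grown overnight at 37°C or 30°C on LB agar, with or without 25 μg/mL kanamycin, plus 100 μg/mL carbenicillin, 50 μM IPTG and 0.2% rhamnose, and pooled colonies were amplicon-sequenced on an Illumina HiSeq 2500. DiMSum fitness is the error-weighted combination of wild-type-normalised replicate fold changes, kanamycin versus none.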
Sequence,self-splicing fitness (ln) (30 °C),self-splicing fitness (ln) (37 °C)
CUGUAGCAAUAUUACGAUCG,0.206 ± 0.16,0.548 ± 0.21
UCUGAGCAAUAUUACGUGUA,-2.67 ± 0.18,-0.868 ± 0.13
CCGCAGCAAUAUUACGUCGA,-1.06 ± 0.059,-0.16 ± 0.069
AGUUAGCAAUAUUACGACCC,-0.338 ± 0.19,-0.0159 ± 0.49
UGCAAGCAAUAUUACGAGAG,-3.4 ± 0.2,-2.97 ± 0.21
GGGGAGCAAUAUUACGCAAG,-3.34 ± 0.26,-1.28 ± 0.2
GACUAGCAAUAUUACGCAUA,-0.568 ± 0.1,-0.145 ± 0.096
GCAUAGCAAUAUUACGGUCG,-1.77 ± 0.12,-1.12 ± 0.12
CGCGAGCAAUAUUACGUACC,–,-2.69 ± 0.35
ACGAAGCAAUAUUACGGGAG,-3.96 ± 0.22,-2.73 ± 0.17
GAGGAGCAAUAUUACGGGAG,-4.37 ± 0.29,-3.63 ± 0.35
ACAUAGCAAUAUUACGGCAG,-1.29 ± 0.11,-0.918 ± 0.16
ACGCAGCAAUAUUACGGAGC,–,-2.47 ± 0.26
GAACAGCAAUAUUACGAGCA,-1.01 ± 0.1,-0.521 ± 0.1
ACUAAGCAAUAUUACGACAC,-0.549 ± 0.1,-0.813 ± 0.13
CAGCAGCAAUAUUACGUAUA,-2.42 ± 0.18,-2.81 ± 0.29
ACGCAGCAAUAUUACGAGGC,-2.95 ± 0.16,-2.79 ± 0.3
UCUUAGCAAUAUUACGCCGA,-2.03 ± 0.28,-0.379 ± 0.38
GUGUAGCAAUAUUACGAUAA,-2.6 ± 0.19,-0.508 ± 0.12
GCGAAGCAAUAUUACGGGUG,-1.77 ± 0.085,-1.88 ± 0.1
AACUAGCAAUAUUACGAAAC,-3.3 ± 0.21,-2.94 ± 0.3
UUCGAGCAAUAUUACGUUGC,-2.18 ± 0.23,-1.27 ± 0.28
UCCAAGCAAUAUUACGCUGU,-2.3 ± 0.14,-2.25 ± 0.17
AUAGAGCAAUAUUACGGCUG,-1.13 ± 0.13,0.795 ± 0.2
AAACAGCAAUAUUACGGUCG,-1.07 ± 0.059,-0.526 ± 0.082
AGGUAGCAAUAUUACGGUAU,-1.957 ± 0.015,-1.07 ± 0.033

Sequence,self-splicing fitness (ln) (30 °C),self-splicing fitness (ln) (37 °C)
GGGAAGCAAUAUUACGAAUC,-0.774 ± 0.11,-0.499 ± 0.14
UUUCAGCAAUAUUACGAAUG,-0.511 ± 0.086,-0.0774 ± 0.12
GUAAAGCAAUAUUACGCACA,0.186 ± 0.082,0.579 ± 0.11
GUUGAGCAAUAUUACGGCAU,-1.32 ± 0.12,-0.928 ± 0.17
GAGCAGCAAUAUUACGCAGG,-2.08 ± 0.13,-2.55 ± 0.19
GAGAAGCAAUAUUACGAGUA,-2.04 ± 0.2,-1.73 ± 0.12
AAAGAGCAAUAUUACGCCCA,-2.88 ± 0.32,-2.02 ± 0.28
UAUCAGCAAUAUUACGCCCA,0.297 ± 0.18,0.008 ± 0.18
CUAGAGCAAUAUUACGUUAG,-1.27 ± 0.066,-0.217 ± 0.096
GACAAGCAAUAUUACGAGGU,-3.51 ± 0.15,-2.92 ± 0.16
CCCGAGCAAUAUUACGCCAG,-2.69 ± 0.38,–
CCUUAGCAAUAUUACGAAUA,-2.52 ± 0.27,-2.21 ± 0.5
CUAAAGCAAUAUUACGCCGU,-3.75 ± 0.27,-2.39 ± 0.25
CGCCAGCAAUAUUACGGCAA,-0.604 ± 0.087,-0.186 ± 0.088
GAAGAGCAAUAUUACGUCAU,-3.91 ± 0.48,-2.13 ± 0.38
CGUAAGCAAUAUUACGACUG,-0.564 ± 0.081,0.421 ± 0.13
CUCUAGCAAUAUUACGUUCU,-3.1 ± 0.15,-3.47 ± 0.22
GGAUAGCAAUAUUACGGGCC,-2.56 ± 0.35,-1.65 ± 0.23
GUAUAGCAAUAUUACGGGUG,-3.76 ± 0.16,-2.86 ± 0.22
CAACAGCAAUAUUACGUGCA,-2.72 ± 0.11,-1.57 ± 0.092
CGAGAGCAAUAUUACGGCGG,-1.63 ± 0.14,-0.665 ± 0.26
AGCUAGCAAUAUUACGCAAA,-1.8 ± 0.18,-2.24 ± 0.24
CGACAGCAAUAUUACGACCG,-0.981 ± 0.1,0.0442 ± 0.18
CUCAAGCAAUAUUACGUAGC,-4.09 ± 0.25,-2.59 ± 0.22
UACAAGCAAUAUUACGCACU,-0.66 ± 0.077,-0.133 ± 0.09
AACGAGCAAUAUUACGACUC,-1.14 ± 0.064,-0.414 ± 0.081

Sequence,self-splicing fitness (ln) (30 °C),self-splicing fitness (ln) (37 °C)
AAGAAGCAAUAUUACGCGGG,-2.95 ± 0.2,-0.684 ± 0.11
GUCCAGCAAUAUUACGUCUA,-0.899 ± 0.11,-0.668 ± 0.12
CGCCAGCAAUAUUACGCUAU,-3.43 ± 0.15,-3.01 ± 0.21
UAAUAGCAAUAUUACGGACC,–,-1.42 ± 0.29
GACAAGCAAUAUUACGGCUG,-0.552 ± 0.082,-0.635 ± 0.11
CACAAGCAAUAUUACGUGUC,-3.86 ± 0.15,-1.63 ± 0.12
CGAAAGCAAUAUUACGUUGG,-1.66 ± 0.08,-0.961 ± 0.097
GUAGAGCAAUAUUACGUCAC,-1.65 ± 0.1,-1.06 ± 0.12
CACAAGCAAUAUUACGCGUG,-2.76 ± 0.16,-2.24 ± 0.22
UUUCAGCAAUAUUACGCUAC,-2.95 ± 0.22,-2.39 ± 0.34
AAGGAGCAAUAUUACGUGCA,-3.03 ± 0.18,-1.37 ± 0.17
AAUCAGCAAUAUUACGAGUG,-0.769 ± 0.053,-0.281 ± 0.08
GGCUAGCAAUAUUACGUCAG,-2.81 ± 0.45,–
GCAAAGCAAUAUUACGGGGG,-3.28 ± 0.2,-1.87 ± 0.18
AAAUAGCAAUAUUACGAACC,-1.91 ± 0.33,1.21 ± 0.28
AUCAAGCAAUAUUACGAUGU,-0.836 ± 0.083,-0.217 ± 0.091
AACGAGCAAUAUUACGCGAA,-4 ± 0.29,-2.96 ± 0.28
CUAAAGCAAUAUUACGUGGA,-3.7 ± 0.2,-2.64 ± 0.19
UAUCAGCAAUAUUACGGCUC,-1.86 ± 0.17,-0.563 ± 0.18
ACAAAGCAAUAUUACGGAGU,-3.79 ± 0.15,-2.9 ± 0.17
ACGGAGCAAUAUUACGUAUU,-3.44 ± 0.48,–
AGCUAGCAAUAUUACGCUCA,-1.67 ± 0.25,-2.11 ± 0.37
CAUCAGCAAUAUUACGUCAA,-3.09 ± 0.15,-2.38 ± 0.15
CACGAGCAAUAUUACGAAAU,-2.18 ± 0.19,-2.81 ± 0.29
GGCUAGCAAUAUUACGUCUU,-0.274 ± 0.075,0.396 ± 0.088
